Earlier results as cited in PMC8295177 (Cancer discovery, 2021).
Like-named read-outs stand apart in the source and are kept apart here.

Test system: NSCLC with EGFRex20ins mutations
Conditions: cited from earlier work
[1] = 39 response-evaluable patients with advanced NSCLC and EGFRex20ins mutations, phase 1

B1: amivantamab: an intravenous bispecific antibody that targets EGFR and MET (antibody, chains of the INN, looked up, V domains shown)
VH: QVQLVESGGGVVQPGRSLRLSCAASGFTFSTYGMHWVRQAPGKGLEWVAVIWDDGSYKYYGDSVKGRFTISRDNSKNTLYLQMNSLRAEDTAVYYCARDGITMVRGVMKDYFDYWGQGTLVTVSS
VL: AIQLTQSPSSLSASVGDRVTITCRASQDISSALVWYQQKPGKAPKLLIYDASSLESGVPSRFSGSESGTDFTLTISSLQPEDFATYYCQQFNSYPLTFGGGTKVEIK
VH2: QVQLVQSGAEVKKPGASVKVSCETSGYTFTSYGISWVRQAPGHGLEWMGWISAYNGYTNYAQKLQGRVTMTTDTSTSTAYMELRSLRSDDTAVYYCARDLRGTNYFDYWGQGTLVTVSS
VL2: DIQMTQSPSSVSASVGDRVTITCRASQGISNWLAWFQHKPGKAPKLLIYAASSLLSGVPSRFSGSGSGTDFTLTISSLQPEDFATYYCQQANSFPITFGQGTRLEIK
- investigator-assessed response rate (ORR) [1]: 36%
- median PFS [1]: 8.3 months
- median PFS (patients with NSCLC with EGFRex20ins and other EGFR mutations): 8.3
